Data set [1] is described as follows: Gelation on addition of metal salts (vial inversion). The data set is classed as physicochemical. To be noted: for gelation in the presence of KCl or NaCl / result of addition of 200 mM of KCl: 10 mM PA solution; for gelation in the presence of KCl or NaCl: salt concentrations up to 6M; for gelation properties, KCl / gelation properties, BaCl2 / gelation properties, CaCl2 / gelation properties, GdCl3 / gelation properties, ZnBr2 / gelation properties, Cu(ClO4)2 / gelation properties, MgCl2: PA 10 mg/ml (roughly 8 mM); for gelation properties, BaCl2 / gelation properties, CaCl2 / gelation properties, GdCl3 / gelation properties, ZnBr2 / gelation properties, Cu(ClO4)2 / gelation properties, MgCl2: salt 20 mM; for minimal amount of CA+2 and Gd+3 ions needed for the gelation: titration. As to the method:
100 μl of 10 mg/ml solution of peptide-amphiphile 20 was treated with 1M CaCl2 (adjusted to pH 6) drop wise in 1 μl increments. The solutions were shaken after each addition of the CaCl2 solution in order to obtain better diffusion of the divalent metal ions. Gelation was immediate. […] This calcium induced self-assembly may be particularly useful for medical applications where formation of a gel at physiological pH is desired. Trivalent metal cations can also be used for gelation.
To determine the relative number of metal ions necessary for gelation of the PAs, titration experiments were performed with PA molecules 26 and 27. […] (See Table 3, below). […] None of the negatively charged peptide-amphiphiles except molecule 32 formed gels in the presence of KCl at a ratio 1 molecule of PA per 20 molecules of KCl.
(§1) The synthesis of the peptide amphiphiles illustrates in examples 19-22 was performed using a standard synthesis scheme described elsewhere, herein, and as further available in the literature. Regarding gelation and with reference to the data of Table 3, […] volumes of PA solutions at concentrations 10 mg/ml (approximately 8 mM), pH 7.5 were mixed with 1 M solutions of NaCl, KCl, MgCl2, CaCl2, BaCl2, ZnBr2, […], Gd^+3 and Cu(ClO4)2. The amount of polyvalent ions added to the solutions varied from 0.5 to 5 metal ions per molecule of PA. For monovalent metal ions the maximum concentration of 6 M of metal ions per 10 mM of PA molecules has been tested. The solutions of the metal salts were added to the PA solutions by micropeppetors, the solutions were stirred briefly, in order to obtain better mixing of the components. The formation of self-supporting gels was examined by flipping of the vials up side down. In order to test the ability of cell compatible solutions to induce a gelation of PAs equal amounts 10 mM PA solutions were mixed with following formulations: MEM-α, DMEM containing 10% of fetal bovine serum, PBS without Ca^+2 and Mg^+2 and Hank's solution without Ca^+2 and Mg^+2 (Gibco). The ability of the above solutions to induce formation of the PAs was examined visually by flipping the vials up side down.

Data set [2] can be described thus: Solubility, pH-dependent precipitation and gelation in water. The data set is classed as physicochemical. As to the method: After synthesis (see, example 10), the PA of FIG. 1 (characterized by ^1H NMR and matrix-assisted laser desorption/ionization time-of-flight mass spectrometry (MALDI-TOF MS): matrix ion [M−H]^−1=1333) was treated with dithiothreitol (DTT) at a pH of 8 to reduce all cysteine residues to free thiols. […] However, upon acidification of the solution below pH 4 the material rapidly becomes insoluble. Solutions more concentrated than 2.5 mg/ml form birefringent gels in water that are self-supporting upon inversion of the container. […] Negatives were digitized in the Umax PowerLook scanner with resolution 1200 dpi. The average thickness of the PA fibers was determined by two different procedures. First the Fourier transform of the images and following measurements of the distances between the peaks were performed in the NIH Image […] program. The second approach applied was averaging technique based on the cross-correlation method, widely used in single particle reconstruction using the EMAN […] program. For each data set 1200-1300 individual boxes were selected.
Several PAs with basic amino acids that can self-assemble at alkaline pH and also mixed systems, in which oppositely charged PAs self-assemble at neutral pH, were prepared. For this purpose PA compounds 22-25 were prepared by standard solid phase peptide synthesis followed by alkylation with the C16 fatty acid, palmitic acid. See Table 2, FIG. 10b (PA 22) and FIGS. 10c-e (PAs 23-25). The peptides thus prepared were characterized by electrospray mass spectroscopy and found to correspond to their respective expected masses.
Solutions of each compound of example 6 were prepared at a concentration of 0.1 mg/m1 at neutral pH.

Data set [3] in a line: Gelation on mixing with cell culture media, PBS or Hank's solution. The data set is classed as physicochemical. The conditions noted are these: for gel formation on mixing with equal amounts of cell culture media: 10 mM PA solution in water; for gel formation on mixing with PBS and Hank's solutions depleted by Ca2+ and Mg2+: PA solution.
Excerpt: One potential application of the peptide-amphiphile self-assembled gels is in the area of tissue engineering, in particular the formation of artificial extracellular matrices and cell delivery systems. The results of this example show PA self-assembly in situ and in vitro cell culture systems. Body fluids as well as cell culture media contain significant amounts inorganic cations. It was presumed that the peptide amphiphiles would form a gel upon mixing with these liquids.
as §1

The nature of data set [4]: Mineralization of PA nanofibers with CaCl2 and Na2HPO4 on TEM grid. As to the method:
To investigate the mineralization properties of PA nanofibers of this invention, the material was assembled and mineralized directly on a holey carbon coated TEM grid—to allow study of the dynamics of the mineralization process while minimizing artifacts of TEM sample preparation. To prepare samples, a drop of aqueous PA (1 mg/ml) was mounted on the holey grid and the self-assembly of the PA was induced in an atmosphere of HCl vapor. The grids were immersed in aqueous iodine to oxidize the cysteine thiol groups to disulfides. After rinsing with distilled water, the PA coated grids were treated with 5 μl of 10 mM CaCl2 on one side and 5 μl of 5 mM Na2HPO4 on the other side. The two solutions are able to mix only by passing through the holes in the carbon support.
In a second control, a PA was prepared in which phosphoserine was replaced by serine and treated as above with calcium and phosphate.

The mark [5] stands for this setting: KCl concentration up to 6M (molecules 26 and 27).

Non-standard residues stand in square brackets, D forms with d. No end group written: not given here. *: point of attachment. C16 alkyl = N-terminal C16 alkyl tail, CCCCCCCCCCCCCCCC*; pS = N[C@@H](COP(=O)(O)O)C(=O)O Some results are limits rather than exact numbers.

Take “20 ({C16 alkyl}-CCCCGGGSRGD-OH; cysteine pairing not given here) [compound 20]”: in data set [1] (100 μl of 10 mg/ml PA, 1M CaCl2 (pH 6) in 1 μl increments), the “gelation on dropwise addition of CaCl2” value was “immediate”.

As to “21 ({C16 alkyl}-CCCCGGGEIKVAV-OH; cysteine pairing not given here) [compound 21]”, in data set [2] (5 mg/ml in water at pH 7), the “appearance of the solution” value was “slightly cloudy”.

On to “22 ({C16 alkyl}-CCCCGGGKIKVAV-NH2; cysteine pairing not given here) [compound 22]”, for which the “appearance of the solution” value in data set [2] (5 mg/ml in water at pH 7) is “slightly cloudy”; in data set [2] (10 mg/ml, neutral pH) it was “cloudy and viscous”.

Regarding “24 ({C16 alkyl}-AAAAGGGKYIGSR-NH2; SMILES CCCCCCCCCCCCCCCCN[C@@H](C)C(=O)N[C@@H](C)C(=O)N[C@@H](C)C(=O)N[C@@H](C)C(=O)NCC(=O)NCC(=O)NCC(=O)N[C@@H](CCCCN)C(=O)N[C@@H](Cc1ccc(O)cc1)C(=O)N[C@H](C(=O)NCC(=O)N[C@@H](CO)C(=O)N[C@@H](CCCNC(=N)N)C(N)=O)[C@@H](C)CC) [compound 24]”, in data set [2] (0.1 mg/ml solution), the “pH above which a precipitate forms on slow addition of base” value is listed as “above 9.5 pH” and the “state at neutral pH” value is listed as “completely dissolved”. For the same substance, the “appearance of the solution” value in data set [2] (10 mg/ml, neutral pH) is “cloudy and viscous”.

“25 ({C16 alkyl}-AAAAGGGEIKVAV-OH; SMILES CCCCCCCCCCCCCCCCN[C@@H](C)C(=O)N[C@@H](C)C(=O)N[C@@H](C)C(=O)N[C@@H](C)C(=O)NCC(=O)NCC(=O)NCC(=O)N[C@@H](CCC(=O)O)C(=O)N[C@H](C(=O)N[C@@H](CCCCN)C(=O)N[C@H](C(=O)N[C@@H](C)C(=O)N[C@H](C(=O)O)C(C)C)C(C)C)[C@@H](C)CC) [compound 25]”: in data set [2] (0.1 mg/ml solution), the “pH below which the PA precipitates on slow acidification (HCl)” value is less than 4.5 pH, the “state at neutral pH” value is recorded as “completely dissolved” and the “state on increasing the solution's pH (KOH)” value was “completely dissolved”.

Turning to “26 (CCCCGGG[pS]RGD-OH; not fully specified (N-terminus); cysteine pairing not given here) [compound 26]”, in data set [1], the “gelation in the presence of KCl or NaCl” value is “did not gel”; the “gelation properties, BaCl2” value is given as “gel”; the “gelation properties, CaCl2” value is “gel”; the “gelation properties, GdCl3” value is “gel”. Moreover, in data set [1], the “gelation properties, ZnBr2” value is reported as “gel”; the “minimal amount of CA+2 and Gd+3 ions needed for the gelation” value was “about equal to the number of PA molecules in solution”. In addition, the “gelation properties, KCl” value in data set [1] (setting [5]) is on record as “Liquid”.

Take “27 (AAAAGGG[pS]RGD-OH; not fully specified (N-terminus); printed as Alkyl-A4G3S(P)RGD-COOH) [compound 27]”: in data set [1], the “gelation in the presence of KCl or NaCl” value was “did not gel”; the “gelation properties, BaCl2” value was “gel”; the “gelation properties, CaCl2” value was “gel”; the “gelation properties, Cu(ClO4)2” value is “gel”. In data set [1], the “gelation properties, GdCl3” value was “gel”; the “gelation properties, ZnBr2” value is “gel”; the “minimal amount of CA+2 and Gd+3 ions needed for the gelation” value is “about equal to the number of PA molecules in solution”. The “gelation properties, KCl” value in data set [1] (setting [5]) was “Liquid”. Moreover, in data set [3], the “gel formation on mixing with equal amounts of cell culture media” value (“gel formation … of cell culture media” below) is given as “gel formation was observed”; the “gel formation on mixing with PBS and Hank's solutions depleted by Ca2+ and Mg2+” value is “no gel formation was observed”.

On to “28 (AAAAGGG[pS]KGE-OH; not fully specified (N-terminus)) [compound 28]”, for which the “gelation properties, KCl” value in data set [1] (KCl 200 mM, pH 7.5) is “Liquid”. Moreover, in data set [1], the “gelation properties, BaCl2” value was “gel”; the “gelation properties, CaCl2” value is recorded as “gel”; the “gelation properties, GdCl3” value is recorded as “gel”; the “gelation properties, ZnBr2” value is recorded as “gel”. Moreover, in data set [3], the “gel formation … of cell culture media” value was “gel formation was observed”; the “gel formation on mixing with PBS and Hank's solutions depleted by Ca2+ and Mg2+” value is listed as “no gel formation was observed”.

Regarding “29 (CCCCGGGSRGD-OH; not fully specified (N-terminus); cysteine pairing not given here) [compound 29]”, in data set [1] (KCl 200 mM, pH 7.5), the “gelation properties, KCl” value was “Liquid”. In addition, in data set [1], the “gelation properties, BaCl2” value is “gel”; the “gelation properties, CaCl2” value was “gel”; the “gelation properties, GdCl3” value is “gel”; the “gelation properties, ZnBr2” value is “gel”.

Consider “30 ({C16 alkyl}-AAAGGEQS-OH; SMILES CCCCCCCCCCCCCCCCN[C@@H](C)C(=O)N[C@@H](C)C(=O)N[C@@H](C)C(=O)NCC(=O)NCC(=O)N[C@@H](CCC(=O)O)C(=O)N[C@@H](CCC(N)=O)C(=O)N[C@@H](CO)C(=O)O) [compound 30]”, for which, in data set [1] (KCl 200 mM, pH 7.5), the “gelation properties, KCl” value is reported as “Liquid”. In addition, in data set [1], the “gelation properties, BaCl2” value was “gel”; the “gelation properties, CaCl2” value is “gel”; the “gelation properties, Cu(ClO4)2” value is given as “gel”; the “gelation properties, GdCl3” value is “gel”. In addition, in data set [1], the “gelation properties, MgCl2” value is recorded as “gel” and the “gelation properties, ZnBr2” value is “gel”.

Take “31 ({C16 alkyl}-AAAAGGGERGDS-OH; SMILES CCCCCCCCCCCCCCCCN[C@@H](C)C(=O)N[C@@H](C)C(=O)N[C@@H](C)C(=O)N[C@@H](C)C(=O)NCC(=O)NCC(=O)NCC(=O)N[C@@H](CCC(=O)O)C(=O)N[C@@H](CCCNC(=N)N)C(=O)NCC(=O)N[C@@H](CC(=O)O)C(=O)N[C@@H](CO)C(=O)O) [compound 31]”: the “gelation properties, KCl” value in data set [1] (KCl 200 mM, pH 7.5) was “liquid”. In addition, in data set [1], the “gelation properties, GdCl3” value is “gel” and the “gelation properties, ZnBr2” value is on record as “gel”.

In the case of “32 (CCCCGGGEIKVAV-OH; not fully specified (N-terminus); cysteine pairing not given here) [compound 32]”, in data set [1], the “result of addition of 200 mM of KCl” value is “formation of a self-supporting gel”; the “gelation properties, CaCl2” value is “gel”; the “gelation properties, GdCl3” value is on record as “gel”; the “gelation properties, MgCl2” value was “gel”. Moreover, in data set [1], the “gelation properties, ZnBr2” value is “gel”. Besides, the “gelation properties, KCl” value in data set [1] (KCl 200 mM, pH 7.5) is reported as “gel”. Further, the “gel formation in the presence of KCl” value in data set [1] (ratio 1 molecule of PA per 20 molecules of KCl) was “formed gels”.

“33 ({C16 alkyl}-CCCCGGGKIKVAV-NH2; cysteine pairing not given here) [compound 33]”: in data set [1], the “result of addition of 200 mM of KCl” value is on record as “formation of a self-supporting gel”. For the same substance, the “gel formation … of cell culture media” value in data set [3] was “gel formation was observed”.

In the case of “Alkyl-C4G3SRGD-COOH ({C16 alkyl}-CCCCGGGSRGD-OH; cysteine pairing not given here) [PA 29]”, the “mineral observed on the fibers by TEM” value was “only amorphous mineral deposit” in data set [4] (20 minutes of incubation with calcium and phosphate); “only amorphous mineral” in data set [4] (30 minutes of incubation with calcium and phosphate).

The values above are taken from US8063014B2, “Self-assembly of peptide-amphiphile nanofibers under physiological conditions” (Northwestern University, priority 2002, dated 2011).
